Experimental data taken from paper PMC7596997.

Biological target: S. cerevisiae AAC2, P18239
Assay: binding of [35S]-labeled AAC2 to isolated mitochondria
Conditions: chain shown with the change, AAC2 lysate preincubated with apyrase, n = 3, read off a plot

Sequence of S. cerevisiae AAC2, P18239 (P18239 whole entry, the tested form may be a part): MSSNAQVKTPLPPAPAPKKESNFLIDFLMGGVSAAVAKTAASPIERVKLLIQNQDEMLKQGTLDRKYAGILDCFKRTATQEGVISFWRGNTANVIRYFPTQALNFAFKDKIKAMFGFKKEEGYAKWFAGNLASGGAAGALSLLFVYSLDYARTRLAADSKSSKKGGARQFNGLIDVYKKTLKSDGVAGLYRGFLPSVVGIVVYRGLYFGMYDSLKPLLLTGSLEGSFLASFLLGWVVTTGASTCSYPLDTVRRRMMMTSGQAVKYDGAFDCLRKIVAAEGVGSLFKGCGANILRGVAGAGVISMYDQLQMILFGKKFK

B1: Tom70 in the outer membrane of isolated yeast mitochondria (wild type), P07213 C141A (protein)
chain: MKSFITRNKTAILATVAATGTAIGAYYYYNQLQQQQQRGKKNTINKDEKKDTKDSQKETEGAKKSTAPSNPPIYPVSSNGEPDFSNKANFTAEEKDKYALALKDKGNQFFRNKKYDDAIKYYNWALELKEDPVFYSNLSAAYVSVGDLKKVVEMSTKALELKPDYSKVLLRRASANEGLGKFADAMFDLSVLSLNGDFNDASIEPMLERNLNKQAMSKLKEKFGDIDTATATPTELSTQPAKERKDKQENLPSVTSMASFFGIFKPELTFANYDESNEADKELMNGLSNLYKRSPESYDKADESFTKAARLFEEQLDKNNEDEKLKEKLAISLEHTGIFKFLKNDPLGAHEDIKKAIELFPRVNSYIYMALIMADRNDSTEYYNYFDKALKLDSNNSSVYYHRGQMNFILQNYDQAGKDFDKAKELDPENIFPYIQLACLAYRENKFDDCETLFSEAKRKFPEAPEVPNFFAEILTDKNDFDKALKQYDLAIELENKLDGIYVGIAPLVGKATLLTRNPTVENFIEATNLLEKASKLDPRSEQAKIGLAQMKLQQEDIDEAITLFEESADLARTMEEKLQAITFAEAAKVQQRIRSDPVLAKKIQETLAKLREQGLM
For B1, the other: bound protein, % of control (same mitochondria without NEM, 12 min) (mitochondria pretreated with 2 mM NEM, control = untreated Tom70C141A mitochondria at 12 min) was 95 % of control and the other: bound protein, % of control (same mitochondria without NEM, 12 min) (no NEM, this point is the normalisation control (100%), not a comparison with wild type) was 100 % of control.
